From paper PMC3209518 come the findings set out here.

The term Kd denotes the free concentration of one partner at which half of the binding sites on the other are occupied at equilibrium, for simple one-to-one binding. Higher therefore signals weaker binding.

The target of data set [1] is human chymotrypsin C (CTRC) mutant N52S, active enzyme (human) (UniProt Q99895). Nature of the data set: equilibrium inhibitor binding assay.
Data set [2] concerns the target human chymotrypsin C (CTRC), wild type, active enzyme (human) (UniProt Q99895). The data set can be described thus: equilibrium inhibitor binding assay.
A short description of data set [3]: trypsin-induced mobility shift on reducing SDS-PAGE. Conditions: glycan lost; control: wild type.
Data set [4] in a line: casein digestion time course, SDS-PAGE. Conditions: glycan lost; control: wild type (HEK 293T).
A short description of data set [5]: Leu81-Glu82 cleavage time course, SDS-PAGE. The following applies: glycan lost; control: wild type (HEK 293T).
A short description of data set [6]: steady-state kinetics, purified CTRC. The following applies: glycan lost; control: wild type (HEK 293T).
The nature of data set [7]: CTRC activity of HEK 293T conditioned media. Conditions: glycan gained; control: wild type.
The nature of data set [8]: active site titration of media with SGPI-2. The following applies: glycan lost; control: wild type.

As for “Schistocerca gregaria proteinase inhibitor-2 (SGPI-2) (natural protein)”, the Kd came out at 2.7 nM in data set [1] and 3.9 nM in data set [2].

B1: human chymotrypsin C (CTRC): N52S (protein)
parent chain: MLGITVLAALLACASSCGVPSFPPNLSARVVGGEDARPHSWPWQISLQYLKNDTWRHTCGGTLIASNFVLTAAHCISNTRTYRVAVGKNNLEVEDEEGSLFVGVDTIHVHKRWNALLLRNDIALIKLAEHVELSDTIQVACLPEKDSLLPKDYPCYVTGWGRLWTNGPIADKLQQGLQPVVDHATCSRIDWWGFRVKKTMVCAGGDGVISACNGDSGGPLNCQLENGSWEVFGIVSFGSRRGCNTRKKPVVYTRVSAYIDWINEKMQL
Consider B1, for which the “other: proteolytic processing” value in data set [3] was “no change”. The enzymatic_activity entry in data set [4] and in data set [5] was “no change” each time. For the same molecule, the “enzymatic_activity, kcat_Km” value in data set [6] is listed as “no change, 1.2 × 106 vs 1.2 × 106”.

B2: bovine CTRC: E92T (protein)
parent chain: MLGITVFTTFLAYASSCGAPIFQPNLSARVVGGEDAIPHSWPWQISLQYLRDNTWRHTCGGTLITPNHVLTAAHCISNTLTYRVALGKNNLEVEDEAGSLYVGVDTIFVHEKWNSFLVRNDIALIKLAETVELSDTIQVACLPEEGSLLPQDYPCFVTGWGRLYTNGPIAAELQQGLQPVVDYATCSQRDWWGTTVKETMVCAGGDGVISACNGDSGGPLNCQAENGNWDVRGIVSFGSGLSCNTFKKPTVFTRVSAYIDWINQKLQL
For the molecule B2, the “expression_or_secretion, fold_change” value in data set [7] was “no change”.

B3: rat CTRC: N90S (protein)
parent chain: MLGITVLAAILACASCCGNPAFPPNLSTRVVGGEDAVPNSWPWQVSLQYLKDDTWRHTCGGSLITTSHVLTAAHCINKDFTYRVGLGKYNLTVEDEEGSVYAEVDTIYVHEKWNRLFLWNDIAIIKLAEPVELSNTIQVACIPEEGSLLPQDYPCYVTGWGRLWTNGPIAEVLQQGLQPIVSHATCSRLDWWFIKVRKTMVCAGGDGVISACNGDSGGPLNCQAEDGSWQVHGIVSFGSSSGCNVHKKPVVFTRVSAYNDWINEKIQL
Regarding B3, the “expression_or_secretion, other: concentration in medium” value in data set [8] was “decreases, 62.4 vs 175”.
